Measured values taken from patent publication US20250051437A1.

Columns and labels:
[1] = target: BT474 Cells; assay: KinExA using BT474 Cells
[2] = target: rat CDH17 fused to moxGFP, overexpressed on HEK293T cells (rat) (UniProt P55281); assay: flow cytometry (BD C6), secondary antibody alone on HEK293T Rat CDH17 moxGFP cells; on HEK293T Parental: 507.66
[3] = target: mouse CDH17-mGFP fusion protein overexpressed on HEK293T cells (mouse) (UniProt Q9R100); assay: flow cytometry (BD C6), secondary antibody alone on HEK293T Mouse CDH17 mGFP cells; on HEK293T Parental: 507.66
mouse CDH17-mGFP fusion protein overexpressed on HEK293T cells (mouse), sequence (Q9R100 26-827): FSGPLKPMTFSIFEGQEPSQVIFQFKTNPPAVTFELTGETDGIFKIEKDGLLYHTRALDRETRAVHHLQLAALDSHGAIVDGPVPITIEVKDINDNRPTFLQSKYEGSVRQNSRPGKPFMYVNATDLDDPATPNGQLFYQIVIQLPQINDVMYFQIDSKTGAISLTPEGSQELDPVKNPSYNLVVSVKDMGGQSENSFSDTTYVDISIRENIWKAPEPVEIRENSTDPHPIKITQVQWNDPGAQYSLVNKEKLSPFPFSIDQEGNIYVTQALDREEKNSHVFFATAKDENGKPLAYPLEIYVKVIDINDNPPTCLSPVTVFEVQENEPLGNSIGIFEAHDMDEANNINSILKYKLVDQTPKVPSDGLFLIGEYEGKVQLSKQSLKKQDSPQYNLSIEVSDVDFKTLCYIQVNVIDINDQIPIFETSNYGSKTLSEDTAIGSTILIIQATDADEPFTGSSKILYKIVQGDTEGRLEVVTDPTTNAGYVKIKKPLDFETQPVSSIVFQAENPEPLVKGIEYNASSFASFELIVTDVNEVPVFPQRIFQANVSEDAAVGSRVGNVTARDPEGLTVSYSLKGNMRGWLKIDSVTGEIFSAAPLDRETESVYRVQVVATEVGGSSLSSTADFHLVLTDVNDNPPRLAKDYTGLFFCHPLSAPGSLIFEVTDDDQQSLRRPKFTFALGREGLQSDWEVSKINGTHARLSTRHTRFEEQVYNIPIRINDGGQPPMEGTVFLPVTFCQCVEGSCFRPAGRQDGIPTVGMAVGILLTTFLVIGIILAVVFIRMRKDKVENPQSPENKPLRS

[4] = target: human cadherin-17 (CDH17), endogenously expressed on human cancer cell lines (LS513, SNU-C1, PaTu8988s, HPAF-II) (human) (UniProt Q12864); assay: flow cytometry (iQue) on LS513 cells; secondary antibody only, background control
[5] = target: human cadherin-17 (CDH17), endogenously expressed on human cancer cell lines (LS513, SNU-C1, PaTu8988s, HPAF-II) (human) (UniProt Q12864); assay: flow cytometry (iQue) on PATU8988S cells; secondary antibody only, background control
[6] = target: human cadherin-17 (CDH17), endogenously expressed on human cancer cell lines (LS513, SNU-C1, PaTu8988s, HPAF-II) (human) (UniProt Q12864); assay: flow cytometry (iQue) on SNUC1 cells; secondary antibody only, background control
[7] = target: human CDH17-mGFP fusion protein overexpressed on HEK293T cells (clone G11) (human) (UniProt Q12864); assay: flow cytometry (BD C6), secondary antibody alone on HEK293T CDH17 mGFP G11 cells; on HEK293T Parental: 507.66
[8] = target: human CDH17-mGFP fusion protein overexpressed on HEK293T cells (clone G11) (human) (UniProt Q12864); assay: flow cytometry (iQue) on HEK293T CDH17 mGFP clone G11 (human); secondary antibody only, background control
[9] = target: monkey (crab-eating macaque) CDH17 fused to moxGFP, overexpressed on HEK293T cells (monkey (crab-eating macaque)); assay: flow cytometry (BD C6), secondary antibody alone on HEK293T Macaque CDH17 moxGFP cells; on HEK293T Parental: 507.66
[10] = target: human cadherin-17 (CDH17), endogenously expressed on human cancer cell lines (LS513, SNU-C1, PaTu8988s, HPAF-II) (human) (UniProt Q12864); assay: indirect flow cytometry (iQue) on LS513 cells (CDH17+); secondary antibody only, background control

rat CDH17 fused to moxGFP, overexpressed on HEK293T cells (rat), sequence (P55281 22-827): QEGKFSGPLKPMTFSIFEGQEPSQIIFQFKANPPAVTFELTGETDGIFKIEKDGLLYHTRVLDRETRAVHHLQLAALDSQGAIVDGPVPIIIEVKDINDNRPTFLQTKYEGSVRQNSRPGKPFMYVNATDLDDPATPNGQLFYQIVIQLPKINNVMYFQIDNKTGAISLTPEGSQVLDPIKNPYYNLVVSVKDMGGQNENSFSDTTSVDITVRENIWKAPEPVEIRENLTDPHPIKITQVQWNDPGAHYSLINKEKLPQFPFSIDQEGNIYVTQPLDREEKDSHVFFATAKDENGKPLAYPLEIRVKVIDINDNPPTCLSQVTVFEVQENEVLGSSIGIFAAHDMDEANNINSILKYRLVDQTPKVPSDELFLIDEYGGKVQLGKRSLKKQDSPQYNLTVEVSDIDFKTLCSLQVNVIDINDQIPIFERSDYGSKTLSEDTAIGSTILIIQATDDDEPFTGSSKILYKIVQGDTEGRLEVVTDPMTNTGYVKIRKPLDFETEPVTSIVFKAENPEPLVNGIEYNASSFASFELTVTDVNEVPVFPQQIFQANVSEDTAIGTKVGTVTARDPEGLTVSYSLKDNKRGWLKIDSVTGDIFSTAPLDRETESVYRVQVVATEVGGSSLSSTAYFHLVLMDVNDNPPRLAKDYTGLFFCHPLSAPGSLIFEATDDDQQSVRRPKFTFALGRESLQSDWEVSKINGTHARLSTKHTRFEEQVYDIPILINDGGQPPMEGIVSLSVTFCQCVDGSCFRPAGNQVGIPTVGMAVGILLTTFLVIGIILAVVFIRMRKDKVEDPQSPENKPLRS

Herceptin (antibody)
Kd [1]: 0.769 nM

fluorochrome-labelled anti-human IgG secondary antibody alone (2nd Ab only control)
FL4-H [2]: 633
FL4-H [3]: 740
Antibody Binding Activity by Flow iQue [4]: 4900
Antibody Binding Activity by Flow iQue [5]: 5930
Antibody Binding Activity by Flow iQue [6]: 3900
FL4-H [7]: 727
Antibody Binding Activity by Flow iQue [8]: 1960
FL4-H [9]: 720

AF647-anti-his tag 2° Ab (secondary antibody alone, control)
FL4-H [10]: 33200
